Source: the supplement of paper PMC10126150
± gives the standard deviation of the averaged measurements.

Tested on: ATP
Experiment: switch fluorescence ratio, 500 uM ATP over buffer (Cy3 cluster intensity, sum of 5 cycles each) (fold (ratio)); higher = stronger signal-on switching upon ATP binding; sequences stand for … in TCGTCGGCAGCGTCAGATGTGTATAAGAGACAGTTTTTTTTTTTTTTTTTTTTTTTTT…TC
Settings: aptamer strand: ATP DNA aptamer (quencher-CACCTGGGGGAGTATTGCGGAGGAAGG + anchor), 100 nM annealed; ATP concentration: 500 uM
In short: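 Cy3-labelled switching-strand clusters on a modified Illumina MiSeq flow-cell were annealed to 100 nM quencher-labelled ATP aptamer, imaged in selection buffer, then imaged after 15 min with 500 uM ATP at 22 °C. Five buffer/ATP cycles ran, with NaOH stripping and re-annealing between them. The fluorescence ratio is summed target-cycle over summed buffer-cycle Cy3 intensity per cluster, averaged per switch-domain sequence. Clusters outside 100-1000 RFU were excluded.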
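Note: ATP exposure 15 min at 22 °C before imaging.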

| Sequence | switch fluorescence ratio |
| --- | --- |
| GGGGGGTGCT | 1.02 ± 0.03 |
| GGGGGGTTTA | 1.01 ± 0.029 |
| GGGGGTAATT | 1.1 ± 0.052 |
| GGGGGTACAT | 0.99 ± 0.011 |
| GGGGGTAGTA | 1.01 ± 0.044 |
| GGGGGTATAT | 1.03 ± 0.019 |
| GGGGGTATCA | 0.98049 ± 0.00015 |
| GGGGGTATCC | 1.03 ± 0.054 |
| GGGGGTCAAT | 1.02 ± 0.04 |
| GGGGGTCAGT | 0.991 ± 0.01 |
| GGGGGTCGCA | 0.947 ± 0.069 |
| GGGGGTGGAA | 0.97 ± 0.028 |
| GGGGGTGGAC | 1.01 ± 0.052 |
| GGGGGTGTGA | 1.02 ± 0.017 |
| GGGGGTTCTA | 1.02 ± 0.011 |
| GGGGGTTGAG | 1.03 ± 0.024 |
| GGGGTAAAAA | 1.01 ± 0.018 |
| GGGGTAAAGT | 1.01 ± 0.028 |
| GGGGTAATCT | 0.99977 ± 0.00079 |
| GGGGTAATTC | 1.06 ± 0.039 |
| GGGGTACACG | 0.979 ± 0.027 |
| GGGGTACACT | 0.9949 ± 0.0056 |
| GGGGTAGAAC | 0.992 ± 0.028 |
| GGGGTAGAAT | 1.03 ± 0.061 |
| GGGGTATCGC | 1.002 ± 0.0095 |

| Sequence | switch fluorescence ratio |
| --- | --- |
| GGGGTATGAC | 1.02 ± 0.015 |
| GGGGTATGGT | 1 ± 0.036 |
| GGGGTCAGTT | 0.973 ± 0.025 |
| GGGGTCCCAG | 0.971 ± 0.03 |
| GGGGTCGGTC | 1 ± 0.023 |
| GGGGTCGTTT | 0.9947 ± 0.0067 |
| GGGGTCTAAA | 1.009 ± 0.0063 |
| GGGGTCTTGG | 1.03 ± 0.038 |
| GGGGTCTTTT | 0.999 ± 0.033 |
| GGGGTGATTG | 0.979 ± 0.0077 |
| GGGGTGGATT | 0.974 ± 0.013 |
| GGGGTGGCAA | 1.008 ± 0.0037 |
| GGGGTGGCCT | 1 ± 0.027 |
| GGGGTGGCGT | 1.07 ± 0.1 |
| GGGGTGGGAT | 0.998 ± 0.016 |
| GGGGTGGGGG | 1.01 ± 0.039 |
| GGGGTGGGTC | 0.974 ± 0.012 |
| GGGGTGGGTT | 0.985 ± 0.036 |
| GGGGTGGTAT | 0.99 ± 0.044 |
| GGGGTGGTTT | 0.951 ± 0.037 |
| GGGGTGTGAG | 0.989 ± 0.017 |
| GGGGTGTTCT | 1.02 ± 0.045 |
| GGGGTGTTGC | 0.999 ± 0.056 |
| GGGGTTACTG | 0.993 ± 0.034 |
| GGGGTTAGTC | 1.02 ± 0.0085 |

| Sequence | switch fluorescence ratio |
| --- | --- |
| GGGGTTCAAT | 0.976 ± 0.044 |
| GGGGTTCATC | 0.995 ± 0.022 |
| GGGGTTCGTT | 1.01 ± 0.072 |
| GGGGTTGAGT | 1.001 ± 0.005 |
| GGGGTTGCCG | 0.992 ± 0.034 |
| GGGGTTGCGT | 0.996 ± 0.034 |
| GGGGTTGGCA | 1.03 ± 0.014 |
| GGGGTTGGCC | 0.986 ± 0.018 |
| GGGGTTGTTG | 0.988 ± 0.035 |
| GGGGTTTGCC | 0.9678 ± 0.0086 |
| GGGGTTTGCG | 0.973 ± 0.011 |
| GGGGTTTGGG | 0.974 ± 0.028 |
| GGGGTTTGTC | 0.95 ± 0.049 |
| GGGGTTTGTG | 0.997 ± 0.037 |
| GGGGTTTTCT | 1.01 ± 0.016 |
| GGGGTTTTTT | 0.986 ± 0.026 |
| GGGTAAAGCT | 1.14 ± 0.018 |
| GGGTAAAGTC | 0.994 ± 0.047 |
| GGGTAAATTA | 0.989 ± 0.042 |
| GGGTAAGAAG | 0.971 ± 0.013 |
| GGGTAATTAG | 1.03 ± 0.041 |
| GGGTAATTGG | 0.986 ± 0.018 |
| GGGTACAGAT | 0.986 ± 0.0099 |
| GGGTACAGCT | 1.014 ± 0.0047 |
| GGGTACCGAA | 0.981 ± 0.027 |

| Sequence | switch fluorescence ratio |
| --- | --- |
| GGGTACGGAA | 1.106 ± 0.01 |
| GGGTAGAGGG | 0.987 ± 0.049 |
| GGGTAGAGGT | 1.003 ± 0.0062 |
| GGGTAGATGC | 1.01 ± 0.052 |
| GGGTAGGAAG | 0.971 ± 0.024 |
| GGGTAGGCGC | 1.04 ± 0.029 |
| GGGTAGGGAA | 0.998 ± 0.016 |
| GGGTAGGGTG | 1.04 ± 0.055 |
| GGGTAGGTGC | 1.13 ± 0.044 |
| GGGTAGTCAG | 0.995 ± 0.017 |
| GGGTAGTGGT | 1.01 ± 0.038 |
| GGGTATACAG | 1.01 ± 0.053 |
| GGGTATACCG | 1.018 ± 0.0017 |
| GGGTATAGTA | 0.973 ± 0.044 |
| GGGTATATGG | 1.01 ± 0.022 |
| GGGTATATTG | 0.983 ± 0.011 |
| GGGTATCTTG | 1 ± 0.003 |
| GGGTATGATG | 1.01 ± 0.044 |
| GGGTATTGGG | 0.99 ± 0.021 |
| GGGTCAACGT | 0.987 ± 0.015 |
| GGGTCAAGTC | 0.968 ± 0.04 |
| GGGTCAGAGA | 0.987 ± 0.019 |
| GGGTCAGGTT | 1.01 ± 0.029 |
| GGGTCATGTA | 1.008 ± 0.0027 |
| GGGTCATTGT | 1.03 ± 0.032 |

| Sequence | switch fluorescence ratio |
| --- | --- |
| GGGTCCCGGG | 1.0586 ± 0.00036 |
| GGGTCCGGCG | 0.995 ± 0.034 |
| GGGTCGGCTA | 1.02 ± 0.035 |
| GGGTCGGGAA | 1.006 ± 0.0032 |
| GGGTCGGGGA | 0.97587 ± 0.00076 |
| GGGTCGGGGT | 0.99 ± 0.029 |
| GGGTCTACCG | 0.991 ± 0.015 |
| GGGTCTGCGC | 1.03 ± 0.024 |
| GGGTCTTCGT | 0.968 ± 0.039 |
| GGGTGAAGGG | 0.974 ± 0.021 |
| GGGTGACGGG | 1.01 ± 0.074 |
| GGGTGATTCC | 1.03 ± 0.014 |
| GGGTGATTGC | 0.964 ± 0.011 |
| GGGTGCCCAT | 1.03 ± 0.021 |
| GGGTGCGATT | 1.03 ± 0.025 |
| GGGTGCTTGG | 1.0239 ± 0.00098 |
| GGGTGGCGGT | 1.01 ± 0.021 |
| GGGTGGGATA | 1.02 ± 0.044 |
| GGGTGGGCTT | 0.997 ± 0.032 |
| GGGTGGGGAG | 0.984 ± 0.045 |
| GGGTGGGGCT | 1.01 ± 0.031 |
| GGGTGGGGG | 1.01 ± 0.033 |
| GGGTGGGGGC | 1.02 ± 0.037 |
| GGGTGGGGTA | 0.971 ± 0.036 |
| GGGTGGGTAG | 0.955 ± 0.037 |

| Sequence | switch fluorescence ratio |
| --- | --- |
| GGGTGGGTCA | 1.01 ± 0.048 |
| GGGTGGTCAG | 1.01 ± 0.023 |
| GGGTGGTGGA | 1.01 ± 0.019 |
| GGGTGTAAAA | 1 ± 0.022 |
| GGGTGTAAGG | 0.998 ± 0.022 |
| GGGTGTAGTG | 0.988 ± 0.024 |
| GGGTGTATCG | 0.9943 ± 0.0036 |
| GGGTGTCCTT | 0.998 ± 0.042 |
| GGGTGTGGGA | 0.997 ± 0.017 |
| GGGTGTGTGT | 1.02 ± 0.017 |
| GGGTGTTTAG | 1.01 ± 0.027 |
| GGGTGTTTGC | 1.02 ± 0.035 |
| GGGTGTTTTC | 0.998 ± 0.034 |
| GGGTGTTTTT | 0.98 ± 0.0073 |
| GGGTTAACGG | 1 ± 0.018 |
| GGGTTAAGCA | 0.9961 ± 0.0055 |
| GGGTTAAGGC | 1.01 ± 0.062 |
| GGGTTAATCG | 1 ± 0.022 |
| GGGTTAATTG | 0.983 ± 0.017 |
| GGGTTAGAAA | 1 ± 0.043 |
| GGGTTAGGGC | 0.988 ± 0.023 |
| GGGTTAGGTG | 1.14 ± 0.065 |
| GGGTTAGGTT | 1.01 ± 0.064 |
| GGGTTATCAG | 0.981 ± 0.035 |
| GGGTTATGCG | 1.04 ± 0.027 |

| Sequence | switch fluorescence ratio |
| --- | --- |
| GGGTTCCTGG | 0.995 ± 0.028 |
| GGGTTCGGAA | 0.9972 ± 0.0093 |
| GGGTTCGGGA | 0.991 ± 0.027 |
| GGGTTGAAGT | 0.985 ± 0.008 |
| GGGTTGACGG | 0.986 ± 0.057 |
| GGGTTGGACT | 0.999 ± 0.012 |
| GGGTTGGCGT | 0.956 ± 0.012 |
| GGGTTGGGCC | 0.989 ± 0.014 |
| GGGTTGGTAG | 0.984 ± 0.026 |
| GGGTTGTAGT | 1.02 ± 0.032 |
| GGGTTGTGGA | 1 ± 0.029 |
| GGGTTGTGGG | 1 ± 0.043 |
| GGGTTGTTGT | 0.982 ± 0.014 |
| GGGTTTAAAA | 0.985 ± 0.044 |
| GGGTTTAATT | 0.999 ± 0.011 |
| GGGTTTAGGT | 0.981 ± 0.011 |
| GGGTTTGAAG | 1 ± 0.025 |
| GGGTTTGATC | 0.9749 ± 0.008 |
| GGGTTTTCAT | 0.993 ± 0.012 |
| GGGTTTTGTT | 1.02 ± 0.029 |
| GGGTTTTTCC | 1.1 ± 0.18 |
| GGTAAAAGTT | 1.01 ± 0.022 |
| GGTAAACAGG | 1.04 ± 0.031 |
| GGTAAATAAG | 0.961 ± 0.018 |
| GGTAAATGGG | 0.957 ± 0.011 |

| Sequence | switch fluorescence ratio |
| --- | --- |
| GGTAACCGCT | 1.01 ± 0.03 |
| GGTAACCTTT | 1.43 ± 0.58 |
| GGTAACGACA | 1.02 ± 0.019 |
| GGTAAGGGTT | 0.9866 ± 0.0081 |
| GGTAAGTTTG | 1.03 ± 0.028 |
| GGTAATATTT | 0.998 ± 0.031 |
| GGTAATGGTG | 1.0095 ± 0.00021 |
| GGTAATTGCG | 0.99 ± 0.022 |
| GGTACACGGG | 1.01 ± 0.054 |
| GGTACAGTTA | 0.985 ± 0.016 |
| GGTACGGGGG | 1 ± 0.013 |
| GGTACGGTAA | 1.11 ± 0.038 |
| GGTACGTATG | 0.986 ± 0.036 |
| GGTACTA | 1.02 ± 0.0021 |
| GGTACTGGAG | 1.04 ± 0.034 |
| GGTAGAAGCG | 1.02 ± 0.026 |
| GGTAGAAGGG | 0.989 ± 0.042 |
| GGTAGAATTA | 0.979 ± 0.032 |
| GGTAGCTTGG | 1.13 ± 0.17 |
| GGTAGGAGAT | 1.05 ± 0.036 |
| GGTAGGGATG | 0.962 ± 0.024 |
| GGTAGGGGGG | 1.01 ± 0.035 |
| GGTAGGGGGT | 1 ± 0.03 |
| GGTAGGTGGT | 0.98 ± 0.022 |
| GGTAGTATGG | 1 ± 0.03 |
